Measurements taken from US20250277051A1 (HANGZHOU UNOGEN BIOTECH, published 2025).

Key:
[1] = target: T1, recombinant cynomolgus monkey CD38 protein (cynomolgus monkey, UniProt Q5VAN0 44-301, biotin labeled); experiment: ELISA, biotinylated recombinant cynomolgus monkey CD38 captured on a streptavidin plate, OD 450 nm
T1 construct: Biotin labeled and captured on a streptavidin coated plate; also called cynomolgus monkey CD38 antigen; cynomolgus recombinant CD38 protein

[2] = target: T2, recombinant mouse CD38 protein (mouse, UniProt P56528 45-304, limits assumed, biotin labeled); experiment: ELISA, biotinylated recombinant mouse CD38 captured on a streptavidin plate, OD 450 nm
T2 construct: also called mouse recombinant CD38 protein; mouse CD38 antigen
T2 sequence (looked up): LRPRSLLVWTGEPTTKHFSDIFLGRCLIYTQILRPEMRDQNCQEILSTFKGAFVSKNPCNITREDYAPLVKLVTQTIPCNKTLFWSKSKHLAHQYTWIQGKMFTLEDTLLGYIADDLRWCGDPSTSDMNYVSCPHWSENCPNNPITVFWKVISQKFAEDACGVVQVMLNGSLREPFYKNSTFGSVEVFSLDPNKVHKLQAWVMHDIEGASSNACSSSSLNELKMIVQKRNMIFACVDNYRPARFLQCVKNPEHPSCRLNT

[3] = target: T3, recombinant human CD38 protein (human, UniProt P28907 43-300, biotin labeled); experiment: ELISA, biotinylated recombinant human CD38 captured on a streptavidin plate, OD 450 nm
T3 construct: Biotin labeled and captured on streptavidin coated plates; also called human CD38 target

[4] = target: T3, recombinant human CD38 protein; experiment: ELISA on recombinant human CD38, OD 450 nm
[5] = target: T4, recombinant cynomolgus monkey CD3 delta and epsilon domain protein (cynomolgus monkey, UniProt Q95LI5 22-117; Q95LI8 22-105, biotin labeled); experiment: ELISA, recombinant antigen on plate
T4 construct: Biotin labeled and captured on a streptavidin coated ELISA plate; also called cynomolgus monkey recombinant CD3 protein, consisting of CD3 epsilon and CD3 delta chains

[6] = target: T4, recombinant cynomolgus monkey CD3 delta …; experiment: ELISA, biotinylated recombinant cynomolgus monkey CD3 epsilon/delta captured on a streptavidin plate, OD 450 nm
[7] = target: T5, recombinant human CD3 delta and epsilon domain protein (human, UniProt P07766 23-126; P04234 22-105, biotin labeled); experiment: ELISA, biotinylated recombinant human CD3 epsilon/delta captured on a streptavidin plate, OD 450 nm
T5 construct: Biotin labeled and captured on a streptavidin coated ELISA plate; also called human recombinant CD3 protein, consisting of CD3 epsilon and CD3 delta chains

[8] = target: T3, recombinant human CD38 protein; experiment: ELISA on recombinant human CD38, OD 450 nm; remark: listed apart in the source

T4 sequence (Q95LI5 22-117, stated change not applied, chain 1 of 2): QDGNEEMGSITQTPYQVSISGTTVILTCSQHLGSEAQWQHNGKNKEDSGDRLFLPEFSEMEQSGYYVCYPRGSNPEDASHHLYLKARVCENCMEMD
T4 sequence (Q95LI8 22-105, stated change not applied, chain 2 of 2): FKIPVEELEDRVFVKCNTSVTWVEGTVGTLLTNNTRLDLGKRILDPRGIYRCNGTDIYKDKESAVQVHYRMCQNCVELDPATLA
T5 sequence (P07766 23-126, stated change not applied, chain 1 of 2): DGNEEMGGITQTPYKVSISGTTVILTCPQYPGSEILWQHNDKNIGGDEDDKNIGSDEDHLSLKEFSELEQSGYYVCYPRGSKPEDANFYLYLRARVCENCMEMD
T5 sequence (P04234 22-105, stated change not applied, chain 2 of 2): as the sequence (Q95LI8 22-105, stated change not applied, chain 2 of 2) above, with V5I, K15N, V20I, T32S, N33D, N34I, A64T, N74S, L83V counted along it

B1: SEQ ID NO 6 (VHH)
VHH: EVQLQESGGGSVQAGGSLTLSCTASGLLFRLASMGWYRQAPGKERELIATITVGGKTNYKDSVQGRFIITRDNTGDNTKSTVTLQMNRLKPEDTAVYYCNTASPAVGADTWGQGTRVTVSS
notes: also called CD38 5F21 VHO1
B1: no binding (tested: about 30 nM) [1]; no binding (tested: about 60 nM) [2]; binds [3].

B2: SEQ ID NOs: 2 and 3 (mAb) (antibody, V domains shown)
VH: QVQLVQSGAEVAKPGTSVKLSCKASGYTFTDYWMQWVKQRPGQGLEWIGTIYPGDGDTGYAQKFQGKATLTADKSSKTVYMHLSSLASEDSAVYYCARGDYYGSNSLDYWGQGTSVTVSS
VL: DIVMTQSHLSMSTSLGDPVSITCKASQDVSTVVAWYQQKPGQSPRRLIYSASYRYIGVPDRFTGSGAGTDFTFTISSVQAEDLAVYYCQQHYSPPYTFGGGTKLEIK
notes: also called CD38 LC1; CD38 HC1
B2: no binding (tested: about 60 nM) [2].

B3: SEQ ID NO 17 (VHH)
VHH: QVQLVQSGAEVKKPGASVKVSCKASGSRFDNYAMGWFRQAPGQEREFMGAISWSSGTTRYAQKVQGRVTMTRDTSTSTVYMELSSLRSEDTAVYYCAARYQPRYYDSGDMDGYEYDNWGQGTLVTVSS
notes: VHO single domain; also called CD38 5FIO VHO2
B3: binds [4].

B4: SEQ ID NO 21 (VHH)
VHH: QMQLVQSGAEVKKTGSSVKVSCKGSGRTFRNYPMAWFRQAPGQEREFMGGITWVGASTLYAQKAQDRVTITRDRSMSTAYMELSSLRSEDTAMYSCAAGRGIVAGRIPAEYADWGQGTLVTVSS
notes: VHO single domain; also called CD38 5FIOK VHO2
B4: binds [4].

B5: SEQ ID NO 18 (VHH)
VHH: QVTLKESGPVLVKPTETLTLTCTGSGSRFDNYAMGWFRQPPGKEREFLAAISWSSGTTRYSTSLKSRLTISRDTSKSQVVLTMTNMDPVDTATYYCAARYQPRYYDSGDMDGYEYDNWGQGTLVTVSS
notes: VHO single domain; also called CD38 5FIO VHO3
B5: binds [4].

B6: SEQ ID NO 4 (VHH)
VHH: EVQLQESGGGLVQAGHSLRLSCVGSGSRFDNYAMGWFRQAPGKEREFVAAISWSSGTTRYLDTVKGRFTISRDNAKSTVYLQMNSLKPEDTAVYYCAARYQPRYYDSGDMDGYEYDNWGQGTQVTVSS
notes: Variable-heavy-only (VHO) single domain; also called CD38 5FIO VHO1
B6 was tested, and the “EC50 (read off the curve)” value [1] was roughly 0.4 nM, the binding result [2] was “binds” and the binding result [3] was “binds”.

B7: SEQ ID NO: 4×SP34 v8 (bispecific antibody, V domains shown)
VHH: EVQLQESGGGLVQAGHSLRLSCVGSGSRFDNYAMGWFRQAPGKEREFVAAISWSSGTTRYLDTVKGRFTISRDNAKSTVYLQMNSLKPEDTAVYYCAARYQPRYYDSGDMDGYEYDNWGQGTQVTVSS
VH: EVQLVESGGGLVQPGGSLKLSCAASGFTFNTYAMNWVRQAPGKGLEWVARIRSKYNNYATYYADSVKDRFTISRDDSKNTAYLQMNNLKTEDTAVYYCVRHGNFGNSYVAWFAYWGQGTLVTVSS
VL: QTVVTQEPSLTVSPGGTVTLTCRSSTGAVTTSNYANWVQQKPGQAPRGLIGGTNKRAPGTPARFSGSLLGGKAALTLSGVQPEDEAEYYCALWYSNLWVFGGGTKLTVL
notes: CD38 VHO arm paired with a CD3 arm
B7 was tested, and the “EC50 (read off the curve)” value [3] was roughly 0.1 nM.

B8: SEQ ID NO 20 (VHH)
VHH: DVQLQESGGGLVQAGHSLRLSCVGSGDRFDNYAMGWFRQAPGKEREFVAAISWSSGTTRYLDTVKGRFTISRDNAKSTVYLQMNSLKPEDTAVYYCAARYQNRFYDSGDMDGYEYDNWGQGTQVTVSS
notes: VHO single domain; also called CD38 5FIO VHO5
B8: binds [4].

B9: SP34 (antibody, V domains shown)
VH: EVQLVESGGGLVQPGGSLKLSCAASGFTFNTYAMNWVRQAPGKGLEWVARIRSKYNNYATYYADSVKDRFTISRDDSKNTAYLQMNNLKTEDTAVYYCVRHGNFGNSYVSWFAYWGQGTLVTVSS
VL: QTVVTQEPSLTVSPGGTVTLTCRSSTGAVTTSNYANWVQQKPGQAPRGLIGGTNKRAPGTPARFSGSLLGGKAALTLSGVQPEDEAEYYCALWYSNLWVFGGGTKLTVL
notes: also called positive control anti-CD3 antibody
B9: binds [5].

B10: SP34 v8 (antibody, V domains shown)
VH: EVQLVESGGGLVQPGGSLKLSCAASGFTFNTYAMNWVRQAPGKGLEWVARIRSKYNNYATYYADSVKDRFTISRDDSKNTAYLQMNNLKTEDTAVYYCVRHGNFGNSYVAWFAYWGQGTLVTVSS
VL: QTVVTQEPSLTVSPGGTVTLTCRSSTGAVTTSNYANWVQQKPGQAPRGLIGGTNKRAPGTPARFSGSLLGGKAALTLSGVQPEDEAEYYCALWYSNLWVFGGGTKLTVL
notes: also called SP34 v8 LC; SP34 v8 HC
With B10 the “EC50 (read off the curve)” value [6] was roughly 0.08 nM and the binding result [7] was “binds”.

B11: SEQ ID NO 29 (VHH)
VHH: DVQLQESGGGSVQAGGSLTLSCTASGWLFRLASMGWYRQAPGKEREMIAVITTGGRTNYKDSVQGRFIITRDNTKSTVTLQMNRLKPEDTAVYYCNTSMPVVGADEWGQGTRVTVSS
notes: VHO single domain; also called CD38 5F21 VHO5
B11: binds [8].

B12: SEQ ID NO 5 (VHH)
VHH: EVQLQESGGGLVQAGGSLRLSCTGSGRTFRNYPMAWFRQAPGKEREFVAGITWVGASTLYADFAKGRFTISRDNAKNTVYLQMNSLKPEDTAVYSCAAGRGIVAGRIPAEYADWGQGTQVTVSS
notes: also called CD38 5F1K VHO1
B12: binds [1]; no binding (tested: about 60 nM) [2]; binds [3].

B13: SEQ ID NO 24 (VHH)
VHH: DVQLQESGGGLVQAGGSLRLSCTGSGRTFYLYPMAWFRQAPGKEREFVAGITWVGASTNYADFAKGRFTISRDNAKNTVYLQMNSLKPEDTAVYSCAAGRGITAGRIPAEYADWGQGTQVTVSS
notes: VHO single domain; also called CD38 5FIOK VHO5
B13: binds [4].
